For 73 sequences, protein stability index results are on record in the supplement of paper PMC10567573.

This data set in a line: protein stability index of a GFP-peptide fusion (GPS, HEK-293T) (PSI 1-6); higher = more stable. As to conditions: c terminus: a fixed tail appended.

± gives the standard deviation.
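Further: 24-mer peptide tiles fused after GFP, lentivirally expressed, FACS-sorted into six equal bins by GFP/DsRed ratio, decoded by Illumina sequencing, PSI is the read-weighted mean bin number.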

Regarding AAAAMYTFLPDNFSPAKPKPSKEL [MYORG], the protein stability index is 3.62 ± 0.11 (treatment: DMSO) and 3.59 ± 0.3 (treatment: MLN4924 1 uM, 8 h). On the same counts, the results for LWEAPPLGAGGGSLLPGAVEQPQP [NEK8] are 4.42 ± 0.13 and 4.36 ± 0.15. For the sequence PNRAGAPGESLECPAELRPQVPQP [TRAF3IP2], the protein stability index runs as follows: (treatment: DMSO) 4.97 ± 0.16; (treatment: MLN4924 1 uM, 8 h) 5.07 ± 0.26. With SQHCKPEEGLEARGEALGLVGAQA [MAGEA3], the protein stability index runs as follows: (treatment: DMSO) 4.73 ± 0.2; (treatment: MLN4924 1 uM, 8 h) 4.73 ± 0.22. On the same counts, the results for LAFRSGSDNLLVILKRKWWKYILL [SLC35F2] are 2.58 ± 0.47 and 1.98 ± 0.54. The like results for VGAAETTLTELRRTVQSLEIDLDS [KRT18] were, in that order, 4.51 ± 0.19 and 4.86 ± 0.24.

Sequence GLVYRLNRFRVEISFHFEVTNHNI [TRIM43] came in with a protein stability index (treatment: DMSO) of 3.33 ± 0.66 and a protein stability index (treatment: MLN4924 1 uM, 8 h) of 3.35 ± 0.8. The like results for IDVEALQVAFGSLYRDDVLIKPSR [GMCL1] were, in that order, 2.37 ± 0.16 and 2.48 ± 0.37. Sequence PETQARLEALLEAAGIGKLSTADG [ANKRD17] had a protein stability index (treatment: DMSO) of 2.95 ± 0.32 and a protein stability index (treatment: MLN4924 1 uM, 8 h) of 3.18 ± 0.42. Regarding MGCHGFRDPFECNMCGYHSQDRYE [IKZF1], the protein stability index runs as follows: (treatment: DMSO) 3.2 ± 0.11; (treatment: MLN4924 1 uM, 8 h) 3 ± 0.3. On the same counts, the results for KQLLNSAVIAQQRRKPDPPKDENE [DLC1] are 5.35 ± 0.28 and 5.41 ± 0.12. The like results for IIWFSFELVVRFFACPSKTDFFKN [KCNA1] were, in that order, 2.88 ± 0.37 and 3.04 ± 0.36. As to STRGAARPAQAIGTQPRATKHKCR [SPACA9], the protein stability index reads like this: (treatment: DMSO) 5.13 ± 0.098; (treatment: MLN4924 1 uM, 8 h) 5.14 ± 0.36. As to YLHNHFIGEGMTKYDYLMTLHGVV [TENT5D], the protein stability index by setting is: (treatment: DMSO) 2.83 ± 0.6; (treatment: MLN4924 1 uM, 8 h) 2.48 ± 0.62.

KTLKAENAGLSSTAGLLREQVAQL [JUNB]: the protein stability index came out at 3.72 ± 0.38 (treatment: DMSO) and 4 ± 0.15 (treatment: MLN4924 1 uM, 8 h). On the same counts, the results for FLADEEFDVVVCDQVSACIPVFRL [ALG2] are 2.3 ± 0.43 and 2.34 ± 0.47.

For PEPLFLGEEDFSLSATIGSILREL [SERTAD3], the protein stability index came to 2.6 ± 0.12 (treatment: DMSO) and 2.57 ± 0.31 (treatment: MLN4924 1 uM, 8 h).

Take MASLGPAAAGEQASGAEAEPGPAG [BTBD1]: the protein stability index runs as follows: (treatment: DMSO) 5.55 ± 0.16; (treatment: MLN4924 1 uM, 8 h) 5.52 ± 0.31. In turn, KKNNIKLYVRRVFIMDSCDELIPE [HSP90AB1] had a protein stability index (treatment: MLN4924 1 uM, 8 h) of 2.06 ± 0.65. For the sequence TFPFKILGDSGLGPWQLNVFVCRV [P2RY14], the protein stability index by setting is: (treatment: DMSO) 3.47 ± 0.73; (treatment: MLN4924 1 uM, 8 h) 3.26 ± 1.5. On the same counts, the results for NLLGEGQHKCDECGKSFTQSSGLI [ZSCAN9] are 3.66 ± 0.3 and 3.68 ± 0.28. The like results for AMAERNRRDAEEWFHAKSAELNKE [KRT13] were, in that order, 5.03 ± 0.27 and 5.01 ± 0.29. In the case of YRHFLKSPNFDGWFKTRRKEMTQK [DENND6A], the protein stability index amounted to 2.83 ± 0.37 (treatment: DMSO) and 3.24 ± 0.12 (treatment: MLN4924 1 uM, 8 h). The like results for TLTSVQLLDCFGIPVLMALSWFIL [SLC35F2] were, in that order, 3.03 ± 0.35 and 2.65 ± 0.58. The like results for ILENRPPGSLLCTVAASDPDTGDN [PCDHGC5] were, in that order, 4.99 ± 0.12 and 5.06 ± 0.13.

For the sequence RRLAQEPLGLEVDQFLEDVRLQER [NOP53], the protein stability index came out at 4.5 ± 0.16 (treatment: DMSO) and 4.54 ± 0.13 (treatment: MLN4924 1 uM, 8 h). On the same counts, the results for RGLLEYFKAYIKIYQGEDLPHPKS [ATL3] are 3.18 ± 0.84 and 2.56 ± 0.88.

HTHRAHTVVPLDDATQEYKEKLQK [TRIM39]: the protein stability index (treatment: DMSO) came out at 5.39 ± 0.2 and the protein stability index (treatment: MLN4924 1 uM, 8 h) came to 5.3 ± 0.35. On the same counts, the results for FKKVLDLNPGFQDATLSLKQTILD [TTC32] are 2.7 ± 0.24 and 2.86 ± 0.2. The like results for KRDLLGALKYWKKAMNMRYSDRTN [FEM1C] were, in that order, 1.95 ± 0.25 and 2.27 ± 0.33. On the same counts, the results for AKGHVKLSDFGLCTGLKKAHRTEF [STK38L] are 2.75 ± 0.21 and 2.61 ± 0.15. As to VHRQLSHLYAEPQKSPWCEARSLE [ESR2], the protein stability index is, setting by setting: (treatment: DMSO) 2.92 ± 0.28; (treatment: MLN4924 1 uM, 8 h) 3.2 ± 0.24. The like results for TFFRLLLPEAPPKKFLTLGSKFRY [EPB41L3] were, in that order, 2.23 ± 0.32 and 2.85 ± 1.4. The like results for PITAHAEVEVVEEAKCCCFFKRKR [CSNK1G1] were, in that order, 2.96 ± 0.73 and 3.23 ± 1.2. The like results for TIIASNAEEAEILHSACGLSKDHQ [TOR1AIP2] were, in that order, 4.48 ± 0.14 and 4.54 ± 0.24.

PAPASPAISVVGVSAGGHTLSRPP [TFE3]: the protein stability index runs as follows: (treatment: DMSO) 4.37 ± 0.28; (treatment: MLN4924 1 uM, 8 h) 4.38 ± 0.25. The like results for DAWSGSNAYHIERLMSFRPICSAN [CRYBA1] were, in that order, 2.46 ± 0.26 and 2.55 ± 0.26. On the same counts, the results for KNNICFMSHHQEELVPKQPQKRKP [SLC2A12] are 4.31 ± 0.14 and 4.64 ± 0.3. On the same counts, the results for DTWTLTEEHGLQQERPRPEPGRLG [PXN] are 4.93 ± 0.34 and 4.92 ± 0.19. Turning to SYPRTPHTPGTPKSAILVPSEKKV [MAP2], the protein stability index by setting is: (treatment: DMSO) 4.6 ± 0.053; (treatment: MLN4924 1 uM, 8 h) 4.74 ± 0.26. Consider EELTREAVAVDVAVPKRLLEIVGR [HAGHL], for which the protein stability index runs as follows: (treatment: DMSO) 3.85 ± 0.17; (treatment: MLN4924 1 uM, 8 h) 3.91 ± 0.38. In turn, LDLLLDMPPVSYDVQLLHSWNNND [SPSB1] gave a protein stability index (treatment: DMSO) of 2.66 ± 0.32 and a protein stability index (treatment: MLN4924 1 uM, 8 h) of 2.65 ± 0.23.

RSFKEELLCAVCYDPFRDAVTLRC [TRIM35]: the protein stability index runs as follows: (treatment: DMSO) 2.58 ± 0.63; (treatment: MLN4924 1 uM, 8 h) 2.61 ± 0.61. In the case of RLSGAGPAEEAGPEGGLEEPDALD [FOXJ1], the protein stability index runs as follows: (treatment: DMSO) 5.51 ± 0.31; (treatment: MLN4924 1 uM, 8 h) 5.59 ± 0.2. HRQSFGTNSDVLAQQFALMAPLLF [DCAF4]: the protein stability index runs as follows: (treatment: DMSO) 2.31 ± 0.28; (treatment: MLN4924 1 uM, 8 h) 2.36 ± 0.27. On the same counts, the results for VSISVVHGNLSEEAAKQMRSRGKV [CPOX] are 3.37 ± 0.47 and 3.47 ± 0.52. The like results for MAMYWGTSRWSSMEIMEAYSVARQ [KCNAB2] were, in that order, 2.43 ± 0.52 and 2.06 ± 0.43.

In the case of KKLKIFAMPMQDIKMILKMVQLDS [PRAME], the protein stability index runs as follows: (treatment: DMSO) 2.93 ± 0.58; (treatment: MLN4924 1 uM, 8 h) 2.75 ± 0.56. The like results for QQIGDAIRMIVRGTLGSCSSSSEC [PLK2] were, in that order, 2.1 ± 0.23 and 2.08 ± 0.39. For the sequence NGDPESVASLHWDGGALLGVLQYR [ADAMTS4], the protein stability index was 2.29 ± 0.74 (treatment: DMSO) and 2.54 ± 0.35 (treatment: MLN4924 1 uM, 8 h).

For CAAVLPGKPGDRNCPEFPPPDRTL [RSPH3], the protein stability index came out at 4.16 ± 0.42 (treatment: DMSO) and 3.76 ± 0.16 (treatment: MLN4924 1 uM, 8 h). On the same counts, the results for VRRECWFLPTALLCAYGFFASLRP [SLC19A2] are 2.95 ± 0.29 and 2.93 ± 0.28. On the same counts, the results for LPLMDLCRRSVRLALGRERLGEIH [SPSB1] are 2.56 ± 0.28 and 2.42 ± 0.29. The like results for HASGDASYSAGDSGDAAAQPAFTG [EPB41L3] were, in that order, 5.32 ± 0.21 and 5.21 ± 0.21. Take AQGPNKPGYLVGRNNANGVDLNRN [CPN1]: the protein stability index is, setting by setting: (treatment: DMSO) 4.33 ± 0.11; (treatment: MLN4924 1 uM, 8 h) 4.35 ± 0.16. On the same counts, the results for KVKPAEAETAGAIMAFFLCLGLAL [SLC29A1] are 2.99 ± 0.62 and 2.86 ± 0.71. The like results for IEELEREAERKIIEENITSAAPSN [SRPK2] were, in that order, 5.34 ± 0.15 and 5.17 ± 0.25. The like results for AEVAPEERENVAVAKLQESQPGNA [SDE2] were, in that order, 5.49 ± 0.18 and 5.718 ± 0.056.

AALQRSLAAALAQHSVPLQLELRA [TRADD] showed a protein stability index (treatment: DMSO) of 2.89 ± 1.2 and a protein stability index (treatment: MLN4924 1 uM, 8 h) of 2.46 ± 0.73. On the same counts, the results for RGAPPPPPSRAPTAAPPPPPPSRP [WASL] are 5.11 ± 0.19 and 5.17 ± 0.2.

With NGTEDLPYAMKPIDYYTETKILQE [NSDHL], the protein stability index came to 4.28 ± 0.17 (treatment: DMSO) and 4.22 ± 0.051 (treatment: MLN4924 1 uM, 8 h). The like results for GFLQALSLAVDKQFEERKKLAAYI [TRIP13] were, in that order, 3.35 ± 0.22 and 2.54 ± 0.39. Sequence AEMLGSVVGNWQYFFPVIFSKASS [MAGEA3] gave a protein stability index (treatment: DMSO) of 2.17 ± 0.31 and a protein stability index (treatment: MLN4924 1 uM, 8 h) of 2.21 ± 0.35. With NGSVGVKNSMENGRPPDPADWAVM [SAMD13], the protein stability index reads like this: (treatment: DMSO) 3.99 ± 0.26; (treatment: MLN4924 1 uM, 8 h) 4.06 ± 0.24. On the same counts, the results for SASHYKLQVIKALKSSGLCESLTY [M1AP] are 2.03 ± 0.41 and 2.25 ± 0.59. On the same counts, the results for FMVVDLLLGGDLRYHLQQNVHFKE [STK32A] are 2.8 ± 0.66 and 3.09 ± 0.78. Regarding YDPDYIQCPYCQRRFNENAADRHI [ZC2HC1A], the protein stability index runs as follows: (treatment: DMSO) 3.84 ± 0.24; (treatment: MLN4924 1 uM, 8 h) 4.16 ± 0.34. The like results for VALLNKTNVKFLAITTDCLQILAY [CTNNB1] were, in that order, 2.86 ± 0.51 and 2.91 ± 0.42. The like results for FTTNKCKGFGFVTMTNYDEAAMAI [ELAVL3] were, in that order, 2.49 ± 0.65 and 2.51 ± 0.14. For the sequence GIAHKIEAGNEFKNIFGTPEFVAP [DAPK3], the protein stability index was found to be 3.44 ± 0.61 (treatment: DMSO) and 3.64 ± 0.39 (treatment: MLN4924 1 uM, 8 h). On the same counts, the results for RQDLEDRYAEHVAATQALPQDSGT [C22orf31] are 5.4 ± 0.17 and 5.46 ± 0.3. On the same counts, the results for KIKSEEIEITFSYWDGSGHRRTVK [FAM50A] are 2.27 ± 0.21 and 2.43 ± 0.16.

For the sequence QEYESIDPGQQFTWEHSNLEVNKP [PTPRD], the protein stability index runs as follows: (treatment: DMSO) 4.94 ± 0.1; (treatment: MLN4924 1 uM, 8 h) 4.93 ± 0.069.
